We go through six molecules from US20160355587A1 (published 2016).

The labels stand for the following.
T1: human CD166 protein (human, UniProt Q13740 28-526)
T1 chain: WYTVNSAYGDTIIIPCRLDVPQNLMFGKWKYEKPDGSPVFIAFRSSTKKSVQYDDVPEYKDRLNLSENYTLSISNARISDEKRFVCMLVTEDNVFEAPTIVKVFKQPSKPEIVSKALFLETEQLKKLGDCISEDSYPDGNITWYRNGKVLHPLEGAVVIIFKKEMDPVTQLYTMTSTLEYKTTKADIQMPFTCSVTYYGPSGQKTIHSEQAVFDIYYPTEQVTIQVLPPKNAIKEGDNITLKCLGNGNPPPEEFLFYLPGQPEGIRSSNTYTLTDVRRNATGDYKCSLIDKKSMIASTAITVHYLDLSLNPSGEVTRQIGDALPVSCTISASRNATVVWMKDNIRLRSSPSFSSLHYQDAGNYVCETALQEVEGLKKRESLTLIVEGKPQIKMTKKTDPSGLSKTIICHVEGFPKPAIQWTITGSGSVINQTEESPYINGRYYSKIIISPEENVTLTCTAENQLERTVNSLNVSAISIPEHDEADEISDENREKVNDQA

B1: CD166-M9_vk3a/HcB (antibody, V domains shown)
VH: QITLKESGPTLVKPTQTLTLTCTFSGFSLSTYGMGVGWIRQPPGKALEWLANIWWSEDKHYSPSLKSRLTITKDTSKNQVVLTMTNMDPVDTATYYCVQIDYGNDYAFTYWGQGTLVTVSS
VL: DIVMTQSPLSLPVTPGEPASISCRSSQSLLHSNGITYLYWYLQKPGQSPQLLIYQMSNRASGVPDRFSGSGSGTDFTLKISRVEAEDVGVYYCAQNLELPYTFGQGTKLEIK
B2: CD166-M9_vK3a/HcC (antibody, V domains shown)
VH: QITLKESGPTLVKPTQTLTLTCTFSGFSLSTYGMGVGWIRQPPGKALEWLANIWWSEDKHYSPSLKSRLTITKDTSKNQVVLTITNVDPVDTATYYCVQIDYGNDYAFTYWGQGTLVTVSS
VL: DIVMTQSPLSLPVTPGEPASISCRSSQSLLHSNGITYLYWYLQKPGQSPQLLIYQMSNRASGVPDRFSGSGSGTDFTLKISRVEAEDVGVYYCAQNLELPYTFGQGTKLEIK
B3: CD166-M9_vK3b/HcC (antibody, V domains shown)
VH: QITLKESGPTLVKPTQTLTLTCTFSGFSLSTYGMGVGWIRQPPGKALEWLANIWWSEDKHYSPSLKSRLTITKDTSKNQVVLTITNVDPVDTATYYCVQIDYGNDYAFTYWGQGTLVTVSS
VL: DIVMTQSPLSLPVTPGEPASISCRSSQSLLHSNGITYLYWYLQKPGQSPQLLIYQMSNRASGVPDRFSSSGSGTDFTLKISRVEAEDVGVYYCAQNLELPYTFGQGTKLEIK
B4: CD166-M9_vK2/HcC (antibody, V domains shown)
VH: QITLKESGPTLVKPTQTLTLTCTFSGFSLSTYGMGVGWIRQPPGKALEWLANIWWSEDKHYSPSLKSRLTITKDTSKNQVVLTITNVDPVDTATYYCVQIDYGNDYAFTYWGQGTLVTVSS
VL: DIVMTQSPLSLPVTPGEPASISCRSSKSLLHSNGITYLYWYLQKPGQSPQLLIYQMSNLASGVPDRFSSSGSGTDFTLKISRVEAEDVGVYYCAQNLELPYTFGQGTKLEIK
B5: CD166-M9_vK3b/HcB (antibody, V domains shown)
VH: QITLKESGPTLVKPTQTLTLTCTFSGFSLSTYGMGVGWIRQPPGKALEWLANIWWSEDKHYSPSLKSRLTITKDTSKNQVVLTMTNMDPVDTATYYCVQIDYGNDYAFTYWGQGTLVTVSS
VL: DIVMTQSPLSLPVTPGEPASISCRSSQSLLHSNGITYLYWYLQKPGQSPQLLIYQMSNRASGVPDRFSSSGSGTDFTLKISRVEAEDVGVYYCAQNLELPYTFGQGTKLEIK
B6: human CD166 (receptor)
chain: WYTVNSAYGDTIIIPCRLDVPQNLMFGKWKYEKPDGSPVFIAFRSSTKKSVQYDDVPEYKDRLNLSENYTLSISNARISDEKRFVCMLVTEDNVFEAPTIVKVFKQPSKPEIVSKALFLETEQLKKLGDCISEDSYPDGNITWYRNGKVLHPLEGAVVIIFKKEMDPVTQLYTMTSTLEYKTTKADIQMPFTCSVTYYGPSGQKTIHSEQAVFDIYYPTEQVTIQVLPPKNAIKEGDNITLKCLGNGNPPPEEFLFYLPGQPEGIRSSNTYTLTDVRRNATGDYKCSLIDKKSMIASTAITVHYLDLSLNPSGEVTRQIGDALPVSCTISASRNATVVWMKDNIRLRSSPSFSSLHYQDAGNYVCETALQEVEGLKKRESLTLIVEGKPQIKMTKKTDPSGLSKTIICHVEGFPKPAIQWTITGSGSVINQTEESPYINGRYYSKIIISPEENVTLTCTAENQLERTVNSLNVSAISIPEHDEADEISDENREKVNDQA

The first experiment concerns the target T1, human CD166 protein. Description: FACS; apparent Kd.
For B1, the Kd turned out to be 2.88 nM.

Regarding B2, the Kd is 3.76 nM.

Regarding B3, the Kd stood at 3.19 nM.

Turning to B4, the Kd turned out to be 2.5 nM.

For the molecule B5, the Kd was determined as 2.61 nM.

The target of another experiment is CD166-M9_chimera. The experiment in a line: FACS; apparent Kd.
Regarding B6, the Kd was determined as 1.12 nM.
